Measurements as given in patent US20040170622A1, “Methods and compositions for modulating XBP-1 activity” (President and Fellows of Harvard College, priority 2002, published 2004).

Tests used:
[1] = target: XBP-1s (spliced form of murine XBP-1 protein, 371 aa) (mouse) (UniProt O35426); assay: cell-based or functional assay
[2] = tested on: IRE1α-mediated XBP-1 mRNA splicing; assay: XBP-1 mRNA level and splicing in J558 cells (Northern blot, RT-PCR); assay type: cell-based; details: J558, Tm 4 hrs; MG-132 10 μM, PS-341 10 μM, ZL3VS 50 μM, AdaAhxL3VS 50 μM
Procedure: (A) XBP-1 mRNA levels in ER stressed J558 cells treated with Tm for 4 hrs in the absence or presence of MG-132. Cells were pretreated with MG-132 for 1 hr before adding Tm. XBP-1 mRNA levels were determined by Northern blot analysis. […] (C) Effect of a panel of PIs on XBP-1 splicing. Cells were treated with Tm for 4 hrs in the absence or presence of MG-132 (10 μM), PS-341 (10 μM), Lactacystin (10 μM), ZL3VS (50 μM) or AdaAhxL3VS (50 μM), and XBP-1 mRNA splicing measured by RT-PCR analysis. (D) IRE-1α phosphorylation in NIH3T3 cells were treated with Tm as indicated after 2 hrs of pretreatment with MG-132 (10 μM).
Total RNA was prepared by using Trizol reagent, electrophoresed on 1.2% agarose, 6% formaldehyde gels and then transferred onto Genescreen Plus membrane, (NEN, Boston, Mass.). […] Probes for ERdj4 and p58^IPK were generated from cDNA excised from EST clones (ATCC, Manassas, Va.) using appropriate restriction enzymes (ERdj4, IMAGE: 1920927; p58^IPK, IMAGE:2646147).

[3] = tested on: XBP-1 mRNA; assay: XBP-1 mRNA induction by cytokines in purified splenic B cells (Northern blot); assay type: cell-based, mouse; details: 20 μg/ml cycloheximide added 30 min before IL-4, 4 hours
Procedure: (§1) Mouse splenocytes or purified B cells (purified mature B cells were isolated from spleen and lymph nodes by magnetic CD43 depletion or B220 magnetic bead selection, Miltenyi Biotech, Auburn Calif.) were plated at 1×10^6 cells/ml in complete media containing RPMI 1640 supplemented with 10% fetal calf serum (FBS)(Hyclone Laboratories), glutamine (2 mM), penicillin (50 units/ml), streptomycin (50 μg/ml), Hepes (100 mM), nonessential amino acids (1×) sodium pyruvate (1 mM) and β-ME (50 μM) and stimulated with anti-CD40(1 μg/ml)(Pharmigen) or LPS (20 μg/ml)(Sigma). Cytokines (R&D Systems, Minneapolis, Minn.) were used at IL-4 (20 ng/ml), IL-2 (20 ng/ml), Il-5 (20 ng/ml), IL-6 (20 ng/ml ), IL-10 (20 ng/ml ) and IL-13 (20 ng/ml). Stimulated B cells were split to a cell concentration of 1×10^6 cells/ml with fresh media every 24 h. The BCL1 (CWS13.20-3B3 ATCC CRL 1699) cell line was cultured in RPMI media supplemented with 10% FBS, gentamicin (20 μg/ml), and β-ME (50 μM). To induce differentiation cells were plated at 2×10^5 cells/ml and treated with recombinant mouse IL-2 and IL-5 (20 ng/ml) (R&D systems).
Total RNA was isolated using TriZo1 (Gibco-BRL) or Qiashedder/Rneasy RNA purification columns (Quiagen). Northern Blots were performed as described (Rengarajan et al., 2000 Immunity. 12:293-300). Briefly, 7-10 μg RNA were electrophoresed on 1.2% agarose, 6% formaldehyde gels transferred onto Genescreen membrane (NEN) and covalently bound to the membrane using UV Stratalinker (Stratagene). The following probes were used after ^32P-radiolabeling with the ReadyPrime labeling system (Amersham-Pharmacia): XBP-1 (15-830 of the murine coding region), GRP94 and GRP78 (both a kind gift of R. J. Kaufman Univ. of Michigan (Lee et al., 2002)), Blimp (Nco1-Sca1 fragment), c-myc cDNA and Il-6 cDNA . […]
Since XBP-1 is required for terminal B cell differentiation, it was important to identify the stimuli that regulate XBP-1 gene expression. A plethora of cytokines (IL-2, IL-4, IL-5, IL-6, IL-10, IL-13) has been implicated in plasma cell differentiation both in vitro and in vivo (reviewed in Calame, K. L. (2001 Nat. Inimunol. 2: 1103-1108; Liu, Y. J., and Banchereau, J. (1997). Sem Immunol 9: 235; Zubler, 1997Sem. Hematol 34:13). It was possible that these cytokines effected terminal B cell differentiation by modulating XBP-1 gene expression. Thus, the ability of these cytokines to upregulate XBP-1 mRNA transcripts in B cells was tested. Purified splenic B cells were cultured for 24 h in the presence or absence of various cytokines and XBP-1 expression determined by Northern blot analysis. […] XBP-1 mRNA levels were determined by Northern blot analysis with γ-actin as control. […] XBP-1 mRNA levels were determined as above. […]

[4] = tested on: IL-6; assay: IL-6 production by retrovirally transduced wt and XBP-1-/- B cells (ELISA, Northern blot); assay type: cell-based, murine; details: LPS 72 h
Procedure: (§2) Assays to measure immunoglobulin or cytokine levels in culture supernatants were performed as described (e.g., Hodge et al., 1996 Immunity. 4:397-405 or Science. 1996 274:1903-5).
(§3) The XBP-1 cDNAs for the unspliced (XBP-1u/s) and the spliced (XBP-1s) forms were PCR-amplified from the total RNA of untreated and tunicamycin treated NIH3T3 cells, respectively, with a primer set (5′-[…]-3′ (SEQ ID NO: 7) and 5′-[…]-3′) (SEQ ID NO: 8). XBP-1u form was generated by a PCR-based mutagenesis from XBP-unspliced/s cDNA so that the two G residues at position 532 and 535 were changed to A without changing amino acid sequences in the XBP-1u open reading frame. Numbers are based on the sequences from gene bank database (NM_013842 [gi:13775155]). These XBP-1 cDNAs were inserted into the GFP-RV retroviral vector by using blunt end ligation (Sambrook et al., 1989). EFFECTENE transfection (Quiagen) was used to introduce the DNA into the Phoenix cell line as described by manufacturer (e.g., Reimold et al., 2001 Nature. 412:300-7 or Int Immunol. 2001 13:241-8). Viral supernatants were harvested after 48 hours and frozen at −80° C. for later use. B cells were purified from mouse spleens using CD43 depletion or positive selection with B220+ magnetic beads as described by the manufacturer (MidiMacs, Miltenyi Biotech). B cell purity was generally near 95% as confirmed by flow cytometry. The B cells (10^6 cells /ml) were then activated in culture with LPS 10 μg/ml and F (ab′)2 anti-IgM (5 μg/ml Southern Biotechnology Associates Inc.) for 24 hours. The 1 ml of activated B cells (10^6 cells/ml) were mixed with 4 μg of polybrene and 1 ml of virus-containing supernatant and spun at 1000 g for 45 minutes at 24° C. Cells were incubated for 24-36 h at 37° C. and then GFP+ cells were flow sorted and returned to culture with and without stimulation.
In human multiple myeloma cells, XBP-1 was induced by IL-6 treatment and implicated in the proliferation of malignant plasma cells (Wen et al., 1999). However, no role for IL-6 in upregulating XBP-1 transcripts or in mediating splicing of XBP-1 RNA in mature B cells has been described (FIG. 6A). The ability of XBP-1 to induce IL-6 production in wt and XBP-1^−/− primary B cells was tested. As described above, in vitro activated murine splenic B cells were transduced using retroviruses expressing bicistronic mRNA for XBP-1u/s, XBP-1s, XBP-1u and control GFP. After cell sorting, GFP^+ cells were stimulated with LPS and assayed for cytokine production after 72 h. In FIG. 6 panel (A) purified B cells from wt and XBP-1^−/− mice were activated in culture with LPS 10 μg/ml and F(ab′)2 anti-IgM (5 μg/ml ) for 24 hours. Retroviral transduction with GFP alone (GFP-Rv), XBP-1u/s (XBP-1 u/s GFP Rv), XBP-1s (XBP-1s GFP Rv) or XBP-1u (XBP-1u GFP Rv) of activated B cells was performed. Cells were incubated for 24-36 h at 37° C. and then GFP+ cells were flow sorted and then returned to culture with LPS stimulation (10 μg/ml) for 72 h. Cytokine production was analyzed by ELISA from culture supernatants of stimulated B cells. Experiments were done at least three times and standard deviation is shown. In panel (B) Total RNAs were prepared from stimulated B cells above and XBP-1 mRNA levels were determined by Northern blot analysis with γ-actin control

[5] = tested on: BCL-1 cells; assay: IgM secretion by retrovirally transduced BCL-1 cells (ELISA); assay type: cell-based
Procedure: as §1, §2
as §3, with “The 1 ml of activated B cells (10^6 cells/ml) were mixed with 4 μg of polybrene and 1 ml of virus-containing supernatant and spun at 1000 g for 45 minutes at 24° C. Cells were incubated for 24-36 h at 37° C. and then GFP+ cells were flow sorted and returned to culture with and without stimulation.” left out

[6] = tested on: XBP-1^−/− B cells; assay: Ig production by retrovirally transduced XBP-1-/- primary B cells (ELISA); assay type: cell-based, mouse; details: LPS 10 μg/ml 72 h
Procedure: as §2, §3
The effects of these three different forms of XBP-1 on Ig secretion were compared in wild type and XBP-1^−/− B cells. In vitro activated splenic B cells were transduced using retroviruses expressing bicistronic mRNA encoding XBP-1u/s, XBP-1s, XBP-1u or control GFP. In FIGS. 5(A) and (B) purified B cells from wt and XBP-1^−/− mice were activated in culture with LPS 10 μg/ml and F (ab′)2 anti-IgM (5 μg/ml) for 24 hours. Retroviral transduction with GFP alone (GFP-Rv), XBP-1u/s (XBP-1u/s GFP Rv), XBP-1s (XBP-1s GFP Rv) or XBP-1u (XBP-1u GFP Rv) of activated B cells was performed. Cells were incubated for 24-36 h at 37° C. and then GFP+ cells were flow sorted and then returned to culture with LPS stimulation (10 μg/ml) for 72 h. IgM panel(A) and IgG2b panel (B) production analyzed by ELISA from culture supernatants of stimulated B cells. Experiments were done at least three times and standard deviation is shown.

XBP-N136 (N terminal 136 amino acids of the spliced form of XBP-1) (from UniProt O35426 1-136)
relative luciferase activity in NIH 3T3 cells (44.5 with 200 ng of spliced XBP-1 alone) (relative luciferase activity) [1]: 2.2

CC(C)C[C@@H](/C=C/S(C)(=O)=O)NC(=O)[C@H](CC(C)C)NC(=O)[C@H](CC(C)C)NC(=O)CCCCCNC(=O)CCCCCNC(=O)CCCCCNC(=O)CC12CC3CC(CC(C3)C1)C2 [AdaAhx3L3VS]
effect on Tm-induced XBP-1 mRNA splicing [2]: suppressed XBP-1 mRNA splicing as efficiently as MG-132

C[C@@H]1C[C@@H]([C@H](O)CC2CC(=O)NC(=O)C2)C(=O)[C@@H](C)C1 [cycloheximide, reference compound]
effect on IL-4-induced upregulation of XBP-1 mRNA [3]: did not affect the upregulation of XBP-1 mRNA in response to IL-4

CC(C)C[C@@H](/C=C/S(C)(=O)=O)NC(=O)[C@H](CC(C)C)NC(=O)[C@H](CC(C)C)NC(=O)OCc1ccccc1 [ZL3VS]
effect on Tm-induced XBP-1 mRNA splicing [2]: suppressed XBP-1 mRNA splicing as efficiently as MG-132

B1: XBP-1u/s: vector expressing XBP-1 mRNA giving the unspliced form and, upon IRE-dependent splicing, the spliced form (protein, UniProt O35426 1-267, looked up)
X-box-binding protein 1: MVVVAAAPSAATAAPKVLLLSGQPASGGRALPLMVPGPRAAGSEASGTPQARKRQRLTHLSPEEKALRRKLKNRVAAQTARDRKKARMSELEQQVVDLEEENHKLQLENQLLREKTHGLVVENQELRTRLGMDTLDPDEVPEVEAKGSGVRLVAGSAESAALRLCAPLQQVQAQLSPPQNIFPWTLTLLPLQILSLISFWAFWTSWTLSCFSNVLPQSLLVWRNSQRSTQKDLVPYQPPFLCQWGPHQPSWKPLMNSFVLTMYTPSL
modifications: GFP retroviral vector
notes: vector expressing XBP-1 mRNA giving the unspliced form and, upon IRE-dependent splicing, the spliced form
IL-6 secretion over control [4]: approximately 2 fold
IgM secretion compared to vector alone controls ([5]; GFP positive BCL-1 cells treated with IL-2 and IL-5 for 3 days): approximately threefold
Ig secretion ([5]; GFP positive BCL-1 cells untreated with cytokine): neither XBP-1u/s nor XBP-1s forms were able to induce Ig secretion
secretion of IgM compared to control cells [6]: approximately ten-fold
